Test results as given in patent US20260250418A1 (BIOCYTOGEN PHARMACEUTICALS BEIJING, published 2026).

T1: His-tagged dog HER3 protein (dHER3, SEQ ID NO: 45) (dog, UniProt P21860 20-642 (human entry))
T1 construct: not shown: His tag
T1 chain: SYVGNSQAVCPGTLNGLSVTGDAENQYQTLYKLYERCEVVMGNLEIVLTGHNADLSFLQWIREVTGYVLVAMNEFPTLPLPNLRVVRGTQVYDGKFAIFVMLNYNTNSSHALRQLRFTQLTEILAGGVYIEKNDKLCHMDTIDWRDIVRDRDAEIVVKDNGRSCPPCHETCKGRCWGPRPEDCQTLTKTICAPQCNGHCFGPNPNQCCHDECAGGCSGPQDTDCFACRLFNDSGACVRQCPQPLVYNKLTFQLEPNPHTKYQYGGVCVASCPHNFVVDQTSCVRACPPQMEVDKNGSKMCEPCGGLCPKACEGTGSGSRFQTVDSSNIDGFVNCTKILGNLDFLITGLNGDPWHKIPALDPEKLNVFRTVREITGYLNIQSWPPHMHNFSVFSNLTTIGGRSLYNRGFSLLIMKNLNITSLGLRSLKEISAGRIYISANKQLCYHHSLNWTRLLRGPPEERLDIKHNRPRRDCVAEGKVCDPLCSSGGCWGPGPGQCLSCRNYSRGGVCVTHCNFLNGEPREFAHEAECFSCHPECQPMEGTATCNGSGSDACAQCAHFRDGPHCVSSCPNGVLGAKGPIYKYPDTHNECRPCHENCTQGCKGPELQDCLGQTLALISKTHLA

T2: monkey (Macaca fascicularis) HER3 on CHO-fasHER3 cells (monkey (Macaca fascicularis), UniProt P21860 20-643 (human entry))
T2 construct: CHO-S cells transfected with fasHER3
T2 chain: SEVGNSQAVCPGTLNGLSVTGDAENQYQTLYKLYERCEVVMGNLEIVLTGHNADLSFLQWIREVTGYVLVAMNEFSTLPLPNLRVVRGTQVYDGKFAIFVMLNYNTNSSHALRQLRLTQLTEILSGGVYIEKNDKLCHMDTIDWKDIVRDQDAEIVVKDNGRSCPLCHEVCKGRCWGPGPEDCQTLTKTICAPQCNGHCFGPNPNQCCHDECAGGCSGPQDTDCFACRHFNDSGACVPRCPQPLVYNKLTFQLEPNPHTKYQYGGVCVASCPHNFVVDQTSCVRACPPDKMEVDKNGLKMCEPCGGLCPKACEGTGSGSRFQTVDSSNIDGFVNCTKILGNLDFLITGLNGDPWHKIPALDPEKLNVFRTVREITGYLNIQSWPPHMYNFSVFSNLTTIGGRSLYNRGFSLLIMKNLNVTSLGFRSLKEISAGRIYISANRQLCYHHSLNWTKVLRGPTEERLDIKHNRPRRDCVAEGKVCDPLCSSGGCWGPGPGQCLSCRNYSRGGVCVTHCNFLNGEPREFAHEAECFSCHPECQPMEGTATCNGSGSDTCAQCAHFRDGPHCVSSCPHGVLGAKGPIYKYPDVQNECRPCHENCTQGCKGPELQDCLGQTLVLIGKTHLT


Key:
[1] = molecular target: T1, His-tagged dog HER3 protein (dHER3, SEQ …); assay: SPR, Ab captured on Protein A
Protocol: (§1) Purified anti-HER3 antibodies was captured on the Protein A chip (Series S Sensor Chip Protein A) for the detection. […] For ISO control, an antibody targeting an irrelevant target protein was used. The flow rate was 30 μL/min, the binding and dissociation time were set to 180 s and 400 s, respectively. The chip was regenerated after the last injection of each titration with a glycine solution (pH 2.0) at 30 μL/min for 30 seconds.
(§2) As a person of ordinary skill in the art would understand, the same method with appropriate adjustments for parameters (e.g., antibody concentration) was performed for each tested antibody.

[2] = molecular target: T3, His-tagged human HER3 protein (hHER3, ACRO Biosystems Inc., Cat #: ER3-H5223) (human, UniProt P21860 20-643); assay: SPR, Ab captured on Protein A
T3 construct: Bought protein; also called hHER3-His; not shown: His tag
Protocol: as §1, §2

[3] = molecular target: T4, His-tagged monkey HER3 protein (fasHER3, Sino Biological, Inc., Cat #: 90043-K08H) (monkey); assay: SPR, Ab captured on Protein A
T4 construct: Bought protein
Protocol: as §1, §2

[4] = molecular target: T2, monkey (Macaca fascicularis) HER3 on …; assay: flow cytometry, transfected CHO cells
Protocol: (§3) CHO-hHER3 cells, CHO-mHER3 cells, CHO-fasHER3 cells or CHO-dHER3 cells were transferred to a 96-well plate at a density of 5×10⁴ cells/well respectively. The anti-HER3 antibodies were added to the 96-well plate, and incubated at 4° C. for 30 min.

[5] = molecular target: T5, mouse HER3 on CHO-mHER3 cells (mouse, UniProt Q61526 20-641); assay: flow cytometry, transfected CHO cells
T5 construct: CHO-S cells transfected with mHER3
T5 sequence (Q61526 20-641): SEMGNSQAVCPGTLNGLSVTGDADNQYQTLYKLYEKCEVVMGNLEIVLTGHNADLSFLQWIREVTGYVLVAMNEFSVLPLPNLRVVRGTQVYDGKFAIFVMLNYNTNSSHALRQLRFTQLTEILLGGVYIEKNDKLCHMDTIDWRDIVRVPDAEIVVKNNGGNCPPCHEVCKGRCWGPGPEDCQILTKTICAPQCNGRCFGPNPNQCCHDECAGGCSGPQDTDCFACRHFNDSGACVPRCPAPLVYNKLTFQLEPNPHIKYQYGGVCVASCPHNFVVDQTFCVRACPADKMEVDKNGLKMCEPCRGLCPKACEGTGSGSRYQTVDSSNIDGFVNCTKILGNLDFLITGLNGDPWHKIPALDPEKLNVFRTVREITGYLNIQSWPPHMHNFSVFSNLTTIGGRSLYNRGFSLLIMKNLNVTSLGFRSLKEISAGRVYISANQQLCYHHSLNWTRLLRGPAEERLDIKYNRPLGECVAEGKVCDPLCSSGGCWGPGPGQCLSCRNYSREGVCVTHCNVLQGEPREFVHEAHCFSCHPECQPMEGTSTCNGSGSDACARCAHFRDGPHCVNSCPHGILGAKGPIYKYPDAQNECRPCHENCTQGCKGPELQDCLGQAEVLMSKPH
Protocol: as §3

| Kd [1] [nM] | koff [1] [s⁻¹] | kon [1] [M⁻¹ s⁻¹] | Kd [2] [nM] | koff [2] [s⁻¹] | kon [2] [M⁻¹ s⁻¹] | Kd [3] [nM] | koff [3] [s⁻¹] | kon [3] [M⁻¹ s⁻¹] | Percentage of Positive Cells [4] [%] | Percentage of Positive Cells [5] [%] | binding result [5] | Binder |
| --- | --- | --- | --- | --- | --- | --- | --- | --- | --- | --- | --- | --- |
| 146 | 0.00809 | 55500 | 34.8 | 0.0091 | 261000 | 50.9 | 0.00834 | 164000 | 65.6 | 15.2 |  | anti-HER3 antibody 3G6 (antibody, V domains shown, common light chain) VH: QVQLVQSGPVLVKPTETLTLTCTVSGFSLSNIRMGVSWIRQPPGKALEWLAHIFSNDDKSYSTSLKSRLTISKDTSKSQVVLTMTNVDPVDTATYYCTRMRYSGGPFDYWGQGTLVTVSS VL: not shown |
| 61.8 | 0.00223 | 36100 | 13.3 | 0.00239 | 179000 | 22.3 | 0.00224 | 100000 | 69 | 22.4 |  | anti-HER3 antibody 1B2 (antibody, V domains shown, common light chain) VH: QVQLVQSGPVLVKPTETLTLTCTVSTFSLSNARMGVSWIRQPPGKALEWLAHIFSNDDKSYSPSLKSRLTISKDTSKTQVVLTMTNMDPVDTATYYCSRMRYSGGPFDYWGQGSLVTVSS VL: not shown |
| 50.4 | 0.00288 | 57100 | 11.5 | 0.00319 | 277000 | 19.1 | 0.00289 | 152000 | 69.4 | 23 |  | anti-HER3 antibody 3E1 (antibody, V domains shown, common light chain) VH: EVQLVQSGPVLAKPTETLTLTCTVSGFSLSNIRMGVSWIRQPPGKALEWLAHIFSNDDKSYSPSLKNRLTISKDTSKSQVVLTMTTMDPMDTATYYCTRMKYSGGPFDYWGQGTLVTVSS VL: not shown |
| 33.4 | 0.000418 | 12500 | 30 | 0.000637 | 21200 | 31.7 | 0.000582 | 18400 | 72.8 | 3.4 | no binding | anti-HER3 antibody 1C5 (antibody, V domains shown, common light chain) VH: QVQLVESGGGVVQPGKSLRLSCAASGFTFSRSGMHWVRQAPGKGLEWVALISFDGSNKYYADSVKGRFTISRDNSKNTLNLQMNSLRAEDTAVYYCAKGGFGVVIYDAFDIWGHGTMVTVSS VL: not shown |
